According to article PMC11443449, “NudCL2 is required for cytokinesis by stabilizing RCC2 with Hsp90 at the midbody” (Protein & Cell, 2024):

Biological target: T1, His-RCC2 (human, UniProt Q9P258 1-522)
T1 construct: Regulator of chromosome condensation 2 (RCC2), human, full length, cloned by PCR from pSA-RCC2 into pET-28a; pET-28a (His-tag vector, Novagen); also called regulator of chromosome condensation 2; telophase disc protein of 60 kDa; source: Escherichia coli BL21, purified
Assay: pull-down; GST pull-down with purified GST, GST-NudCL2 and His-RCC2; incubated in PBS at 4°C for 4 h, then glutathione-agarose beads for 2 h; Western blot
Settings: both partners purified

T1 sequence (Q9P258 whole entry): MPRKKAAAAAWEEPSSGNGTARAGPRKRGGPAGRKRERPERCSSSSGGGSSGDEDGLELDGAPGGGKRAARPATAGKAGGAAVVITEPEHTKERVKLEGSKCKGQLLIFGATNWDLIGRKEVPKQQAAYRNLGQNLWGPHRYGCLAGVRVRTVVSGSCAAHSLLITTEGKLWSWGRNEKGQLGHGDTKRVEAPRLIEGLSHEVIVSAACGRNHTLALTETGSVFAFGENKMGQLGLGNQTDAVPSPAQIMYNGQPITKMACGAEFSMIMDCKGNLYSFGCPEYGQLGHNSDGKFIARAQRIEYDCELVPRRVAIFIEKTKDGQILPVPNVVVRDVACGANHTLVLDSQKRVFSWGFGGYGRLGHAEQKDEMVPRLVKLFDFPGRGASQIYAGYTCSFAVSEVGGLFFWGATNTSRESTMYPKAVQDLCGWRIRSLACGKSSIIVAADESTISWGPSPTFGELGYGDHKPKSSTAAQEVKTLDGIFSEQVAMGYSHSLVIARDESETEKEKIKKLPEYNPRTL

binding result: binds
B1: GST-NudCL2 (natural protein, human, UniProt Q8WVJ2 1-157, looked up)
chain: MSAPFEERSGVVPCGTPWGQWYQTLEEVFIEVQVPPGTRAQDIQCGLQSRHVALSVGGREILKGKLFDSTIADEGTWTLEDRKMVRIVLTKTKRDAANCWTSLLESEYAADPWVQDQMQRKLTLERFQKENPGFDFSGAEISGNYTKGGPDFSNLEK
notes: NudC-like protein 2 (NudCL2, NudCD2), human; Li et al., 2019; Yang et al., 2010, 2019) for the vector; also called NudC-like protein 2; NudC domain-containing protein 2; source: Escherichia coli BL21, purified
